Results taken from publication PMC9482650, “Quantitative fragmentomics allow affinity mapping of interactomes” (Nature Communications, 2022).

T1: MPDZ_5, O75970
T1 sequence (O75970 695-796, limits assumed, looked up): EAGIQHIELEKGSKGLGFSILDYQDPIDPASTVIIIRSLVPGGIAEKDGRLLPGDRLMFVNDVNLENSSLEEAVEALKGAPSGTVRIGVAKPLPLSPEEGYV

T2: SNTA1, Q13424
T2 sequence (Q13424 82-180, limits assumed, looked up): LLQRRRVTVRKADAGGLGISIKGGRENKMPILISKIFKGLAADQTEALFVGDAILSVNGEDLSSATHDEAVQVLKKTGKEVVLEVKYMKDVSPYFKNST

T3: MPP6, Q9NZW5
T3 sequence (Q9NZW5 125-219, limits assumed, looked up): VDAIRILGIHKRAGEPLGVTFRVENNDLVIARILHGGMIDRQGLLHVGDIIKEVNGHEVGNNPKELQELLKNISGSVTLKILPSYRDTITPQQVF

T4: DFNB31_3, Q9P202
T4 sequence (Q9P202 811-907, limits assumed, looked up): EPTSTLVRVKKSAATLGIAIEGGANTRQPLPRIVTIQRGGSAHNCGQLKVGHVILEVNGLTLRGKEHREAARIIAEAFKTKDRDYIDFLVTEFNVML

T5: CARD11, Q9BXL7
T5 sequence (Q9BXL7 662-765, limits assumed, looked up): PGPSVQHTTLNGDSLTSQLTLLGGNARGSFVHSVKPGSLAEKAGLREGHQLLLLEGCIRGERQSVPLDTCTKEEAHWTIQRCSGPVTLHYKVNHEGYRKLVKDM

T6: NHERF3_1, Q5T2W1
T6 sequence (Q5T2W1 4-100, limits assumed, looked up): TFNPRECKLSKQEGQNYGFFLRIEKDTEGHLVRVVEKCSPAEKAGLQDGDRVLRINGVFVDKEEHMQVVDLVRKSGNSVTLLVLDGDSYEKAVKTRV

T7: SIPA1L2, Q9P2F8
T7 sequence (Q9P2F8 945-1036, limits assumed, looked up): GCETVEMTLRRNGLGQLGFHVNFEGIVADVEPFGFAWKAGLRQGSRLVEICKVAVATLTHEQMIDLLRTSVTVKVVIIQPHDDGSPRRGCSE

T8: LIN7A, O14910
T8 sequence (O14910 103-200, limits assumed, looked up): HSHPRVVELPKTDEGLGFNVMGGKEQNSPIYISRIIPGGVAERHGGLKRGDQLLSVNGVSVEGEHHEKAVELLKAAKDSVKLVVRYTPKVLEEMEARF

T9: NHERF3_4, Q5T2W1
T9 sequence (Q5T2W1 373-468, limits assumed, looked up): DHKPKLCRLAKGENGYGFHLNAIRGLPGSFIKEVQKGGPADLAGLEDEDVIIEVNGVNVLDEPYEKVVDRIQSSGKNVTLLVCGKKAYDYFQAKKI

T10: PDZD2_2, O15018
T10 sequence (O15018 329-429, limits assumed, looked up): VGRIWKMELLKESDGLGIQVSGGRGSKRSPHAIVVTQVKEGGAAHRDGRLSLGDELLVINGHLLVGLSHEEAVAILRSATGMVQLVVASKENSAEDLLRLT

T11: DFNB31_2, Q9P202
T11 sequence (Q9P202 274-371, limits assumed, looked up): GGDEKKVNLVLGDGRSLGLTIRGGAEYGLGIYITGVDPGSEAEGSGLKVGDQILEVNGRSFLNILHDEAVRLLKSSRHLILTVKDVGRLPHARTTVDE

T12: PCLO, Q9Y6V0
T12 sequence (Q9Y6V0 4491-4600, limits assumed, looked up): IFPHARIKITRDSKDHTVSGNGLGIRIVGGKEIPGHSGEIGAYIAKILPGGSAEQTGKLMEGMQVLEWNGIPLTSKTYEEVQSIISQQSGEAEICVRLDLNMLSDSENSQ

B1: BPIFA2, Q96DR5 (peptide)
chain: QHKTQLQTLI

Target: GRIP2_6, Q9C0E4
Test: holdup assay
Parameters: key: below the threshold = too weak to quantify, mostly under pKd 3.1 to 4
Conditions: plain residues with an end cap or a label only (N-terminal biotin on a linker: ado-ado)

Sequence of GRIP2_6, Q9C0E4 (Q9C0E4 648-740): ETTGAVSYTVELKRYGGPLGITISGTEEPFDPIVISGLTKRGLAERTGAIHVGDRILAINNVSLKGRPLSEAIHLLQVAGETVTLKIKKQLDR

| pKd | Binder |
| --- | --- |
| below the threshold | B1 |

Target: DLG1_2, Q12959
Test: holdup assay
Parameters: key: below the threshold = too weak to quantify, mostly under pKd 3.1 to 4
Conditions: plain residues with an end cap or a label only (N-terminal biotin on a linker: ado-ado)

| pKd | Binder |
| --- | --- |
| 4.88 | B1 |

Target: T1, MPDZ_5, O75970
Test: holdup assay
Parameters: key: below the threshold = too weak to quantify, mostly under pKd 3.1 to 4
Conditions: plain residues with an end cap or a label only (N-terminal biotin on a linker: ado-ado)

| pKd | Binder |
| --- | --- |
| below the threshold | B1 |

Target: T2, SNTA1, Q13424
Test: holdup assay
Parameters: key: below the threshold = too weak to quantify, mostly under pKd 3.1 to 4
Conditions: plain residues with an end cap or a label only (N-terminal biotin on a linker: ado-ado)

| pKd | Binder |
| --- | --- |
| below the threshold | B1 |

Target: T3, MPP6, Q9NZW5
Test: holdup assay
Parameters: key: below the threshold = too weak to quantify, mostly under pKd 3.1 to 4
Conditions: plain residues with an end cap or a label only (N-terminal biotin on a linker: ado-ado)

| pKd | Binder |
| --- | --- |
| below the threshold | B1 |

Target: DLG1_1, Q12959
Test: holdup assay
Parameters: key: below the threshold = too weak to quantify, mostly under pKd 3.1 to 4
Conditions: plain residues with an end cap or a label only (N-terminal biotin on a linker: ado-ado)

| pKd | Binder |
| --- | --- |
| 4.34 | B1 |

Target: T4, DFNB31_3, Q9P202
Test: holdup assay
Parameters: key: below the threshold = too weak to quantify, mostly under pKd 3.1 to 4
Conditions: plain residues with an end cap or a label only (N-terminal biotin on a linker: ado-ado)

| pKd | Binder |
| --- | --- |
| 4.8 | B1 |

Target: IL16_3, Q14005
Test: holdup assay
Parameters: key: below the threshold = too weak to quantify, mostly under pKd 3.1 to 4
Conditions: plain residues with an end cap or a label only (N-terminal biotin on a linker: ado-ado)

Sequence of IL16_3, Q14005 (Q14005 1107-1207): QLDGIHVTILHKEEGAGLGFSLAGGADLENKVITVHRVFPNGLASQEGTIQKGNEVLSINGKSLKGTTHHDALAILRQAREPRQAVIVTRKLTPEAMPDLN

| pKd | Binder |
| --- | --- |
| below the threshold | B1 |

Target: T5, CARD11, Q9BXL7
Test: holdup assay
Parameters: key: below the threshold = too weak to quantify, mostly under pKd 3.1 to 4
Conditions: plain residues with an end cap or a label only (N-terminal biotin on a linker: ado-ado)

| pKd | Binder |
| --- | --- |
| below the threshold | B1 |

Target: T6, NHERF3_1, Q5T2W1
Test: holdup assay
Parameters: key: below the threshold = too weak to quantify, mostly under pKd 3.1 to 4
Conditions: plain residues with an end cap or a label only (N-terminal biotin on a linker: ado-ado)

| pKd | Binder |
| --- | --- |
| 5.29 | B1 |

Target: GRIP2_5, Q9C0E4
Test: holdup assay
Parameters: key: below the threshold = too weak to quantify, mostly under pKd 3.1 to 4
Conditions: plain residues with an end cap or a label only (N-terminal biotin on a linker: ado-ado)

Sequence of GRIP2_5, Q9C0E4 (Q9C0E4 544-642): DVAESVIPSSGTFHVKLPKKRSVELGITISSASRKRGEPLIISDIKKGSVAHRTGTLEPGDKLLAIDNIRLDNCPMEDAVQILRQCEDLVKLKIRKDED

| pKd | Binder |
| --- | --- |
| below the threshold | B1 |

Target: MAST1, Q9Y2H9
Test: holdup assay
Parameters: key: below the threshold = too weak to quantify, mostly under pKd 3.1 to 4
Conditions: plain residues with an end cap or a label only (N-terminal biotin on a linker: ado-ado)

Sequence of MAST1, Q9Y2H9 (Q9Y2H9 962-1065): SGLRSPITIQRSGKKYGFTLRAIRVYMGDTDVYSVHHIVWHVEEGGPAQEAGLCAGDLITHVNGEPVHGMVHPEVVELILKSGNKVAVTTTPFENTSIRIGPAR

| pKd | Binder |
| --- | --- |
| below the threshold | B1 |

Target: DLG2_3, Q15700
Test: holdup assay
Parameters: key: below the threshold = too weak to quantify, mostly under pKd 3.1 to 4
Conditions: plain residues with an end cap or a label only (N-terminal biotin on a linker: ado-ado)

| pKd | Binder |
| --- | --- |
| below the threshold | B1 |

Target: GIPC2, Q8TF65
Test: holdup assay
Parameters: key: below the threshold = too weak to quantify, mostly under pKd 3.1 to 4
Conditions: plain residues with an end cap or a label only (N-terminal biotin on a linker: ado-ado)

Sequence of GIPC2, Q8TF65 (Q8TF65 112-203): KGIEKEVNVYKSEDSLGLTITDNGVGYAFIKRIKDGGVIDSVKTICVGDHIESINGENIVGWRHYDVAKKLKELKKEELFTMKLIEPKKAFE

| pKd | Binder |
| --- | --- |
| 3.49 | B1 |

Target: GRID2IP_2, A4D2P6
Test: holdup assay
Parameters: key: below the threshold = too weak to quantify, mostly under pKd 3.1 to 4
Conditions: plain residues with an end cap or a label only (N-terminal biotin on a linker: ado-ado)

Sequence of GRID2IP_2, A4D2P6 (A4D2P6 272-370): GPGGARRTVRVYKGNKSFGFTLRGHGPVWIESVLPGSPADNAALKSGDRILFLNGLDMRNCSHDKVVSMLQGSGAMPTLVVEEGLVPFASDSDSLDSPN

| pKd | Binder |
| --- | --- |
| 3.93 | B1 |

Target: T7, SIPA1L2, Q9P2F8
Test: holdup assay
Parameters: key: below the threshold = too weak to quantify, mostly under pKd 3.1 to 4
Conditions: plain residues with an end cap or a label only (N-terminal biotin on a linker: ado-ado)

| pKd | Binder |
| --- | --- |
| below the threshold | B1 |

Target: T8, LIN7A, O14910
Test: holdup assay
Parameters: key: below the threshold = too weak to quantify, mostly under pKd 3.1 to 4
Conditions: plain residues with an end cap or a label only (N-terminal biotin on a linker: ado-ado)

| pKd | Binder |
| --- | --- |
| below the threshold | B1 |

Target: T9, NHERF3_4, Q5T2W1
Test: holdup assay
Parameters: key: below the threshold = too weak to quantify, mostly under pKd 3.1 to 4
Conditions: plain residues with an end cap or a label only (N-terminal biotin on a linker: ado-ado)

| pKd | Binder |
| --- | --- |
| 3.48 | B1 |

Target: T10, PDZD2_2, O15018
Test: holdup assay
Parameters: key: below the threshold = too weak to quantify, mostly under pKd 3.1 to 4
Conditions: plain residues with an end cap or a label only (N-terminal biotin on a linker: ado-ado)

| pKd | Binder |
| --- | --- |
| 4.25 | B1 |

Target: MAGI2_2, Q86UL8
Test: holdup assay
Parameters: key: below the threshold = too weak to quantify, mostly under pKd 3.1 to 4
Conditions: plain residues with an end cap or a label only (N-terminal biotin on a linker: ado-ado)

Sequence of MAGI2_2, Q86UL8 (Q86UL8 410-522): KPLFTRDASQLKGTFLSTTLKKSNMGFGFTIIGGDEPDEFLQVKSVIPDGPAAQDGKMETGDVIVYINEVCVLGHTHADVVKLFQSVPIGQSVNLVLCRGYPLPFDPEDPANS

| pKd | Binder |
| --- | --- |
| 4.43 | B1 |

Target: T11, DFNB31_2, Q9P202
Test: holdup assay
Parameters: key: below the threshold = too weak to quantify, mostly under pKd 3.1 to 4
Conditions: plain residues with an end cap or a label only (N-terminal biotin on a linker: ado-ado)

| pKd | Binder |
| --- | --- |
| below the threshold | B1 |

Target: FRMPD2_3, Q68DX3
Test: holdup assay
Parameters: key: below the threshold = too weak to quantify, mostly under pKd 3.1 to 4
Conditions: plain residues with an end cap or a label only (N-terminal biotin on a linker: ado-ado)

Sequence of FRMPD2_3, Q68DX3 (Q68DX3 1073-1166): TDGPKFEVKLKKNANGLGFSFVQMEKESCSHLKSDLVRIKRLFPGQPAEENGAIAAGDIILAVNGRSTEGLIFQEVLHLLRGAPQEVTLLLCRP

| pKd | Binder |
| --- | --- |
| below the threshold | B1 |

Target: GRASP, Q7Z6J2
Test: holdup assay
Parameters: key: below the threshold = too weak to quantify, mostly under pKd 3.1 to 4
Conditions: plain residues with an end cap or a label only (N-terminal biotin on a linker: ado-ado)

Sequence of GRASP, Q7Z6J2 (Q7Z6J2 96-193): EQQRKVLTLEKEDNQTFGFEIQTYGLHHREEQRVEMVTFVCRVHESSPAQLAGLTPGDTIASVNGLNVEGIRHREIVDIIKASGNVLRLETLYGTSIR

| pKd | Binder |
| --- | --- |
| 4.04 | B1 |

Target: T12, PCLO, Q9Y6V0
Test: holdup assay
Parameters: key: below the threshold = too weak to quantify, mostly under pKd 3.1 to 4
Conditions: plain residues with an end cap or a label only (N-terminal biotin on a linker: ado-ado)

| pKd | Binder |
| --- | --- |
| below the threshold | B1 |

Target: FRMPD2_2, Q68DX3
Test: holdup assay
Parameters: key: below the threshold = too weak to quantify, mostly under pKd 3.1 to 4
Conditions: plain residues with an end cap or a label only (N-terminal biotin on a linker: ado-ado)

Sequence of FRMPD2_2, Q68DX3 (Q68DX3 944-1038): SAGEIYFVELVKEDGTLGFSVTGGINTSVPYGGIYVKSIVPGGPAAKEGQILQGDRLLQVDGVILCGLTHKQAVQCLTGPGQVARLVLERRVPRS

| pKd | Binder |
| --- | --- |
| below the threshold | B1 |

Target: NHERF2_2, Q15599
Test: holdup assay
Parameters: key: below the threshold = too weak to quantify, mostly under pKd 3.1 to 4
Conditions: plain residues with an end cap or a label only (N-terminal biotin on a linker: ado-ado)

Sequence of NHERF2_2, Q15599 (Q15599 142-238): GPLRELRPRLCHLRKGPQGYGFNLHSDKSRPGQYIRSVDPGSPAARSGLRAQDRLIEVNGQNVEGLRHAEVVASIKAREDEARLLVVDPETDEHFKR

| pKd | Binder |
| --- | --- |
| 3.58 | B1 |
